Reference: publication PMC8944172 (Antiviral Research, 2022)

Target: His-tagged RBD of SARS-CoV-2 (SARS-CoV-2, UniProt P0DTC2)
Test: SPR

B1: REG10987 (antibody, V domains shown)
VH: QVQLVESGGGVVQPGRSLRLSCAASGFTFSNYAMYWVRQAPGKGLEWVAVISYDGSNKYYADSVKGRFTISRDNSKNTLYLQMNSLRTEDTAVYYCASGSDYGDYLLVYWGQGTLVTVSS
VL: QSALTQPASVSGSPGQSITISCTGTSSDVGGYNYVSWYQQHPGKAPKLMIYDVSKRPSGVSNRFSGSKSGNTASLTISGLQSEDEADYYCNSLTSISTWVFGGGTKLTVL
  binding result: binds

B2: REG10933 (antibody, V domains shown)
VH: QVQLVESGGGLVKPGGSLRLSCAASGFTFSDYYMSWIRQAPGKGLEWVSYITYSGSTIYYADSVKGRFTISRDNAKSSLYLQMNSLRAEDTAVYYCARDRGTTMVPFDYWGQGTLVTVSS
VL: DIQMTQSPSSLSASVGDRVTITCQASQDITNYLNWYQQKPGKAPKLLIYAASNLETGVPSRFSGSGSGTDFTFTISGLQPEDIATYYCQQYDNLPLTFGGGTKVEIK
  binding result: binds
